Consider two proteins from publication PMC6642173, “Acetylation regulates ribonucleotide reductase activity and cancer cell growth” (Nature Communications, 2019).

This data set deals with the molecule itself. Put plainly: cross-linking; purified recombinant RRM2 proteins cross-linked with 2 mM disuccinimidylsuberate (DSS), SDS-PAGE.

B1: Recombinant His6-tagged WT RRM2 (natural protein, human, UniProt P31350 1-389, looked up)
chain: MLSLRVPLAPITDPQQLQLSPLKGLSLVDKENTPPALSGTRVLASKTARRIFQEPTEPKTKAAAPGVEDEPLLRENPRRFVIFPIEYHDIWQMYKKAEASFWTAEEVDLSKDIQHWESLKPEERYFISHVLAFFAASDGIVNENLVERFSQEVQITEARCFYGFQIAMENIHSEMYSLLIDTYIKDPKEREFLFNAIETMPCVKKKADWALRWIGDKEATYGERVVAFAAVEGIFFSGSFASIFWLKKRGLMPGLTFSNELISRDEGLHCDFACLMFKHLVHKPSEERVREIIINAVRIEQEFLTEALPVKLIGMNCTLMKQYIEFVADRLMLELGFSKVFRVENPFDFMENISLEGKTNFFEKRVGEYQRMGVMSSPTENSFTLDADF
notes: RRM2, human; Purification may be described in the Supplementary Methods; also called recombinant RRM2 WT; source: E. coli, purified
One may read the stoichiometry N as a count of units in the complex or per binding partner. As to B1, the “stoichiometry N” value was found to be 2.

B2: Recombinant K95R RRM2 (natural protein, human, UniProt P31350 1-389, looked up)
chain: MLSLRVPLAPITDPQQLQLSPLKGLSLVDKENTPPALSGTRVLASKTARRIFQEPTEPKTKAAAPGVEDEPLLRENPRRFVIFPIEYHDIWQMYRKAEASFWTAEEVDLSKDIQHWESLKPEERYFISHVLAFFAASDGIVNENLVERFSQEVQITEARCFYGFQIAMENIHSEMYSLLIDTYIKDPKEREFLFNAIETMPCVKKKADWALRWIGDKEATYGERVVAFAAVEGIFFSGSFASIFWLKKRGLMPGLTFSNELISRDEGLHCDFACLMFKHLVHKPSEERVREIIINAVRIEQEFLTEALPVKLIGMNCTLMKQYIEFVADRLMLELGFSKVFRVENPFDFMENISLEGKTNFFEKRVGEYQRMGVMSSPTENSFTLDADF
notes: RRM2, human, with K95R; Probably His6-tagged and made in E. coli like the WT and K95Q proteins; source: recombinant, purified
Turning to B2, the “stoichiometry N” value came to 2.
